Measured values taken from patent publication US20130064881A1 (GRADALIS, published 2013).

T1: full length androgen receptor (human, UniProt P10275 1-920)
T1 construct: Full length AR expressed inside transfected cells (intracellular, not on the surface); also called AR; full length AR
T1 sequence: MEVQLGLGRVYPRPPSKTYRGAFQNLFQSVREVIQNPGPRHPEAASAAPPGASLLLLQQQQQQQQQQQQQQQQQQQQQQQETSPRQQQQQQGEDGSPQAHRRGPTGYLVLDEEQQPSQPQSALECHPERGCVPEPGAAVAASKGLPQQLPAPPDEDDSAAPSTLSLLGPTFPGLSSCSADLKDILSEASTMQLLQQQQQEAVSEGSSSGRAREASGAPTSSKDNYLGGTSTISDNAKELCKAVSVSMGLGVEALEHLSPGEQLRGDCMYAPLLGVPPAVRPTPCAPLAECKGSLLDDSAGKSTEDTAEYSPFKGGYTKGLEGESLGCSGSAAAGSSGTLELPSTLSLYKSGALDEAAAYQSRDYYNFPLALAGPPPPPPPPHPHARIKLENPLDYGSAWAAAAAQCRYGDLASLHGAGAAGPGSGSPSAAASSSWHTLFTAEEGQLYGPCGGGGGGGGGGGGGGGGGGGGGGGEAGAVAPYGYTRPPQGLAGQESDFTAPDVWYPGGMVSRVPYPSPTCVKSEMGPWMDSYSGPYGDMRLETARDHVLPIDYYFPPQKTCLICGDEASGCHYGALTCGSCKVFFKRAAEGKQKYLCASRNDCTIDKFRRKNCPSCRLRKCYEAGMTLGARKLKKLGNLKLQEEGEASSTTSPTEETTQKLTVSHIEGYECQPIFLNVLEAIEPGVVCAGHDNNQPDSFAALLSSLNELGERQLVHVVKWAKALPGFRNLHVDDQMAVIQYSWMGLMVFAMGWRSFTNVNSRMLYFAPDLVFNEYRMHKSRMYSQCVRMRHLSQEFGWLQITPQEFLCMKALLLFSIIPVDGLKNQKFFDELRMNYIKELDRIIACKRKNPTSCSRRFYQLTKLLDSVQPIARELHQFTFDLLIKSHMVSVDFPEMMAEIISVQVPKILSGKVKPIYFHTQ

T2: progesterone receptor (UniProt P06401 1-933, limits assumed)
T2 construct: The assay and the construct are not described; also called a related receptor, the progesterone receptor
T2 sequence (looked up): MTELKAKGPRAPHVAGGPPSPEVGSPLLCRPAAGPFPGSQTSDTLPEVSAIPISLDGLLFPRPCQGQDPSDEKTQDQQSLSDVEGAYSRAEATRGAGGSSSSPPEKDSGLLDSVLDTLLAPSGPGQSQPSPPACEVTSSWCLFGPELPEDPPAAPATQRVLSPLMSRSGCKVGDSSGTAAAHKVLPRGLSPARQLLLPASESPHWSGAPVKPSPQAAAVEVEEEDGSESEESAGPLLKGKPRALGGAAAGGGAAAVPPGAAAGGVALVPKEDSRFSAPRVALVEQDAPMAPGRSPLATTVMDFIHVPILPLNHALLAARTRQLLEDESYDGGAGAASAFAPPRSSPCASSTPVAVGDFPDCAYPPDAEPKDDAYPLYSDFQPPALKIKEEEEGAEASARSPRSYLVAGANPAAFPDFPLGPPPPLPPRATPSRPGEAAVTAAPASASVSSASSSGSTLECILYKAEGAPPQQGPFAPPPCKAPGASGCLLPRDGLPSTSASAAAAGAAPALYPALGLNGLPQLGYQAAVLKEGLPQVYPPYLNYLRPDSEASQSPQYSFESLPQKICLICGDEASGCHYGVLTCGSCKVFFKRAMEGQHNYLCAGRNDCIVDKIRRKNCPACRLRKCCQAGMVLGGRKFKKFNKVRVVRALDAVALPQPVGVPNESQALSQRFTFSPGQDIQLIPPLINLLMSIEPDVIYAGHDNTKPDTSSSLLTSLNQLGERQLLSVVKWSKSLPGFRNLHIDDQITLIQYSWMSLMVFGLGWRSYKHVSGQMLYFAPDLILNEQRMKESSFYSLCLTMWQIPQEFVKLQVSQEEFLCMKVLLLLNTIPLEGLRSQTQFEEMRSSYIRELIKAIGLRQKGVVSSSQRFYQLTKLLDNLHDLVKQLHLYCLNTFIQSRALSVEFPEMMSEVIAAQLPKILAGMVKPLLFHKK


Columns and labels:
[1] = target: T1, full length androgen receptor; test: not described
progesterone receptor = target: T2, progesterone receptor; test: not described

| binding result [1] | binding result (progesterone receptor) | Binder |
| --- | --- | --- |
| binds | no binding | SRCdp200: Amino acids 1050-1240 of SRC-1 (Expressed in cells from a transfected plasmid; also called SRC derived peptide; 200 amino acid fragment) peptide: MAPNQLRLQLQQRLQGQQQLIHQNRQAILNQFAATAPVGINMRSGMQQQITPQPPLNAQMLAQRQRELYSQQHRQRQLIQQQRAMLMRQQSFGNNLPPSSGLPVQMGNPRLPQGAPQQFPYPPNYGTNPGTPPASTSPFSQLAANPEASLANRNSMVSRGMTGNIGGQFGTGINPQMQQNVFQYPGAGMVPQ |
| binds | no binding | SRCdp100: Amino acids 1050-1150 of SRC-1 (Expressed in cells from a transfected plasmid; also called SRCdp(P100); SRC derived peptide) peptide: MAPNQLRLQLQQRLQGQQQLIHQNRQAILNQFAATAPVGINMRSGMQQQITPQPPLNAQMLAQRQRELYSQQHRQRQLIQQQRAMLMRQQSFGNNLPPSSGL |
